According to patent US20240279281A1, “Peptide Inhibitors of Interleukin-23 Receptor” (Janssen Pharmaceutica NV, priority 2023, published 2024):
Where two headings read alike, the source gives them in different places. Starred links: 1 amine or outer side, 2 acyl side, 3 side chain; linkers in the order of their positions; H or OH if unused. Positions of bridges follow the written chain, without caps; N, C: chain ends. Non-standard residues stand in square brackets, D forms with d. Residues, ends and D or L forms follow the SMILES beside them. Groups on a side chain read outwards from the residue. Primed or numbered codes have the meaning given here. *: point of attachment. TMAPF = 5-(4-(2-amino-2-carboxyethyl)phenoxy)-N,N,N-trimethylpentan-1-aminium, C[N+](C)(C)CCCCCOc1ccc(C[C@H](N[*:1])C(=O)[*:2])cc1; AEF(G) = 2-amino-3-(4-(2-guanidinoethoxy)phenyl)propanoic acid, N=C(N)NCCOc1ccc(C[C@H](N[*:1])C(=O)[*:2])cc1; 6Br2Nal = 2-amino-3-(6-bromonaphthalen-2-yl)propanoic acid, O=C([C@H](Cc1ccc2cc(Br)ccc2c1)N[*:1])[*:2]; 6F2Nal = 2-amino-3-(6-fluoronaphthalen-2-yl)propanoic acid, O=C([C@H](Cc1ccc2cc(F)ccc2c1)N[*:1])[*:2]; X22 = CN(CCOCCOCC(=O)N(C)CCOCCOCC(=O)*)C(=O)CC[C@@H](C(=O)O)N(C)C(=O)CCCCCCCCCCCCCCCCCc1nnn[nH]1; Trp(7-(3-AcNH-Ph)) = CC(=O)Nc1cccc(-c2cccc3c(C[C@H](N)C(=O)O)c[nH]c23)c1; PEG2NMePEG2NMegENMeCl8Tetrazole = not defined here; 2Nal(6-OH) = N[C@@H](Cc1ccc2cc(O)ccc2c1)C(=O)O; Trp(7-Me) = Cc1cccc2c(C[C@H](N)C(=O)O)c[nH]c12; 3Pal(5-Me) = Cc1cncc(C[C@H](N)C(=O)O)c1; γGlu = O=C(O)[C@H](CCC(=O)[*:2])N[*:1]; AEF = NCCOc1ccc(C[C@H](N)C(=O)O)cc1; 3Pal = N[C@@H](Cc1cccnc1)C(=O)O; NMecPEG3a = not defined here; Pen = CC(C)(S)[C@H](N)C(=O)O; PEG2′ = not defined here; Thp = NC1(C(=O)O)CCOCC1; Sar = CNCC(=O)O

B1: SEQ ID NO: 349 (peptide)
peptide: Ac-X[Pen]NT[Trp(7-Me)]K(Ac)[Pen][AEF][2Nal(6-OH)][Thp]EN[3Pal][Sar]-NH2
modifications: disulfide 2-7 (inferred); not fully specified (residue 1); printed as MeCO-k(d)-Pen(3)-N-T-7MeW-K(Ac)-Pen(3)-AEF-6OH2Nal-THP-E-N-3Pya-Sar-CONH2
B2: SEQ ID NO: 319 (peptide)
peptide: cPEG3aCO-[Pen]NT[Trp(7-Me)]K(NMecPEG3a)[Pen][AEF][2Nal(6-OH)][Thp]EN[3Pal][Sar]-NH2
modifications: disulfide 1-6 (inferred); not fully specified; printed as cPEG3aCO-Pen(3)-N-T-7MeW-K(NMecPEG3a)-Pen(3)-AEF-6OH2Nal-THP-E-N-3Pya-Sar-CONH2; reading uncertain
B3: SEQ ID NO: 319 (peptide)
peptide: cPEG3aCO-[Pen]NT[Trp(7-Me)]K(NMecPEG3a)[Pen][AEF][2Nal(6-OH)][Thp]EN[3Pal][Sar]-NH2
modifications: disulfide 1-6 (inferred); not fully specified; printed as cPEG3aCO-Pen(3)-N-T-7MeW-K(NMecPEG3a)-Pen(3)-AEF-6OH2Nal-THP-E-N-3Pya-Sar-CONH2; reading uncertain
B4: SEQ ID NO: 11 (peptide)
peptide: XXNTXXXXXXENXX
modifications: MeCO-k(Me)3-Pen(3)-N-T-7(3NAcPh)W-K(Ac)-Pen(3)-AEF(G)-6OH2Nal-THP-E-N-5MePyridinAla-Sar-CONH2
B5: SEQ ID NO: 11 (peptide)
peptide: XXNTXXXXXXENXX
modifications: MeCO-k(Me)3-Pen(3)-N-T-7(3NAcPh)W-K(Ac)-Pen(3)-AEF(G)-6OH2Nal-THP-E-N-5MePyridinAla-Sar-CONH2
B6: SEQ ID NO: 349 (peptide)
peptide: Ac-X[Pen]NT[Trp(7-Me)]K(Ac)[Pen][AEF][2Nal(6-OH)][Thp]EN[3Pal][Sar]-NH2
modifications: disulfide 2-7 (inferred); not fully specified (residue 1); printed as MeCO-k(d)-Pen(3)-N-T-7MeW-K(Ac)-Pen(3)-AEF-6OH2Nal-THP-E-N-3Pya-Sar-CONH2

Legend:
IL-23R = molecular target: T1, IL-23R (Homo sapiens, UniProt Q5VWK5); assay: IL23R Reporter Assay; format: cell-based
T1 construct: host or cells: HEK293
T1 sequence (Q5VWK5 24-629): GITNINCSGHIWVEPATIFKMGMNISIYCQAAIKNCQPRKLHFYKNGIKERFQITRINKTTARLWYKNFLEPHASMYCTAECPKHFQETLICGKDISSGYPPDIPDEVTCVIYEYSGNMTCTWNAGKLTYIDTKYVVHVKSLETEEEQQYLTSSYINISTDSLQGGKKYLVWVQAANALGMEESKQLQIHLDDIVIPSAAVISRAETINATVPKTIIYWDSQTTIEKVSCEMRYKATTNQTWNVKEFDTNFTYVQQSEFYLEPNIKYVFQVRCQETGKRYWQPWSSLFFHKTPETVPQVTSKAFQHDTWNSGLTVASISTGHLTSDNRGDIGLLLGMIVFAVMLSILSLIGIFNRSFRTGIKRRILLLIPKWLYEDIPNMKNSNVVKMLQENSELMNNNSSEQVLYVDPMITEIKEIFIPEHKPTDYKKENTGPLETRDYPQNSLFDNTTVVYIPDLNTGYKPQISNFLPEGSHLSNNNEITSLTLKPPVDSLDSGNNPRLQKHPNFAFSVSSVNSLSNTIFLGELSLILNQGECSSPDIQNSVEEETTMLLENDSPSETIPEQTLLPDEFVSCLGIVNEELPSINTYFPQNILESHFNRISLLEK
Protocol: Compounds were serially diluted in 100% (v/v) DMSO) and plated using an Echo acoustic dispenser (Labcyte) into 1536-well non-treated black assay plates (Corning #9146). […] After 5 h at 37° C., 5% CO2, 95% relative humidity, cells were placed at 20° C. and treated with BioGlo reagent (Promega) according to the Manufacturer's instructions. Luminescence was measured on a Pherastar FSX (BMG LabTech).

[1] = disulfide bond, 20-membered ring, I2/MeOH, 20% MeCN/H2O
[2] = molecular target: T2, IL-23-stimulated phosphorylated STAT3 in peripheral blood mononuclear cells (PBMCs) (Homo sapiens, UniProt Q5VWK5); assay: PBMC pSTAT3 Assay; format: cell-based
T2 sequence (Q5VWK5 24-629): T1 sequence (Q5VWK5 24-629)
Summary of the method: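 Anti-CD3/IL-1β-expanded donor PBMCs (day 4) starved ~4 h in RPMI-0.1% BSA, preincubated 30 min with peptide, then stimulated 30 min at 37° C with 5 ng/mL IL-23 (final). Lysates read for phospho-STAT3 by Meso Scale phospho-STAT panel immunoassay.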

[3] = molecular target: T3, interleukin-23 receptor (IL-23R) (UniProt Q5VWK5 24-629, limits assumed); assay: cell-based or functional assay
T3 sequence (looked up): T1 sequence (Q5VWK5 24-629)

[4] = molecular target: T4, interleukin-23 receptor (IL-23R) (UniProt Q5VWK5 24-629, limits assumed); assay: cell-based or functional assay; remark: listed apart in the source
T4 sequence (looked up): T1 sequence (Q5VWK5 24-629)

| Molecule | PBMC pSTAT3 IC50 [3] | also measured |
| --- | --- | --- |
| CC(=O)NCCCC[C@@H]1NC(=O)[C@H](Cc2c[nH]c3c(C)cccc23)NC(=O)[C@H]([C@@H](C)O)NC(=O)[C@H](CC(N)=O)NC(=O)[C@@H](NC(C)=O)C(C)(C)SSC(C)(C)[C@@H](C(=O)N[C@@H](Cc2ccc(OCCN)cc2)C(=O)N[C@@H](Cc2ccc3cc(O)ccc3c2)C(=O)NC2(C(=O)N[C@@H](CCC(=O)O)C(=O)N[C@@H](CC(N)=O)C(=O)N[C@@H](Cc3cccnc3)C(=O)N(C)CC(N)=O)CCOCC2)NC1=O [SEQ ID NO: 428, MeCO-Pen(3)-N-T-7MeW-K(Ac)-Pen(3)-AEF-6OH2Nal-THP-E-N-3Pya-Sar-CONH2] (Ac-[Pen]NT[Trp(7-Me)]K(Ac)[Pen][AEF][2Nal(6-OH)][Thp]EN[3Pal][Sar]-NH2; disulfide 1-6) |  | IC50 (IL-23R; HEK293 cells containing IL-23R, IL-12Rβ1 and STAT-inducible luciferase reporter, 10 ng/mL IL-23, 5 h, read-out: IC50): < 10 nM; ring closure, yield after HPLC ([1]; from Ac-Pen-Asn-Thr-7MeTrp-Lys(Ac)-Pen-AEF-6OH2Nal-THP-Glu-Asn-3Pya-Sar-NH2, 1.0 mM): 8.61%; IC50 ([2]; PBMCs from healthy donors, IL-23 5 ng/mL, 30 minutes, read-out: PBMC pSTAT3 IC50): < 0.01 nM |
| CC(=O)NCCCC[C@@H]1NC(=O)[C@H](Cc2c[nH]c3c(C)cccc23)NC(=O)[C@H]([C@@H](C)O)NC(=O)[C@H](CC(N)=O)NC(=O)[C@@H](NC(=O)[C@@H](CCCNC(=N)N)NC(C)=O)C(C)(C)SSC(C)(C)[C@@H](C(=O)N[C@@H](Cc2ccc(OCCN)cc2)C(=O)N[C@@H](Cc2ccc3cc(O)ccc3c2)C(=O)NC2(C(=O)N[C@@H](CCC(=O)O)C(=O)N[C@@H](CC(N)=O)C(=O)N[C@@H](Cc3cccnc3)C(=O)N(C)CC(=O)N[C@@H](CCCCNC(=O)COCCOCCN(C)C(=O)COCCOCCN(C)C(=O)CC[C@@H](C(=O)O)N(C)C(=O)CCCCCCCCCCCCCCCCCc3nnn[nH]3)C(N)=O)CCOCC2)NC1=O [SEQ ID NO: 115, MeCO-r-Pen(3)-N-T-7MeW-K(Ac)-Pen(3)-AEF-6OH2Nal-THP-E-N-3Pya-Sar-K(PEG2NMePEG2NMegENMeCl8Tetrazole)-CONH2] (Ac-[dR][Pen]NT[Trp(7-Me)]K(Ac)[Pen][AEF][2Nal(6-OH)][Thp]EN[3Pal][Sar]K(X22)-NH2; disulfide 2-7) |  | IC50 (IL-23R): 10 to 100 nM; ring closure, yield after HPLC ([1]; from Ac-dArg-Pen-Asn-Thr-7MeTrp-Lys(Ac)-Pen-AEF-6OH2Nal-THP-Glu-Asn-3Pya-Sar-Lys(PEG2NMePEG2NMegENMeCl8Tetrazole)-NH2, 0.503 mM): 8.08%; IC50 ([2]; read-out: PBMC pSTAT3 IC50, PBMCs from healthy donors, IL-23 5 ng/mL, 30 minutes): 0.1 to 1 nM |
| Ac-[dR][Pen]NT[Trp(7-(3-AcNH-Ph))]K(Ac)[Pen][AEF][2Nal(6-OH)][Thp]EN[3Pal][Sar]-NH2 (disulfide 2-7 (inferred)) [SEQ ID NO: 287, listing 1 of 2 here] | < 0.1 nM |  |
| Ac-[dR][Pen]NT[Trp(7-(3-AcNH-Ph))]K(Ac)[Pen][AEF(G)][2Nal(6-OH)][Thp]EN[3Pal(5-Me)][Sar]-NH2 (disulfide 2-7 (inferred)) [SEQ ID NO: 15, listing 1 of 2 here] |  | IL23R Reporter Assay IC50 [4]: < 10 nM |
| Ac-[dR][Pen]NT[Trp(7-(3-AcNH-Ph))]K(Ac)[Pen][AEF][2Nal(6-OH)][Thp]EN[3Pal][Sar]-NH2 (disulfide 2-7 (inferred)) [SEQ ID NO: 287, listing 2 of 2 here] |  | IL23R Reporter Assay IC50 [4]: < 10 nM |
| Ac-[Pen]NT[Trp(7-Me)]K(Ac)[Pen][AEF][2Nal(6-OH)][Thp]EN[3Pal][Sar]K([PEG2′-PEG2′-γGlu-C18OH])-NH2 (disulfide 1-6 (inferred)) [SEQ ID NO: 283] | < 1 nM |  |
| B1 |  | IL23R Reporter Assay IC50 [4]: < 10 nM |
| B2 | < 0.1 nM |  |
| Ac-[dR][Pen]NT[Trp(7-Me)]K(Ac)[Pen][AEF][2Nal(6-OH)][Thp]EN[3Pal][Sar]-NH2 (disulfide 2-7 (inferred)) [SEQ ID NO: 442] | < 10 pM |  |
| B3 |  | IL23R Reporter Assay IC50 [4]: < 10 nM |
| Ac-[Pen]NT[Trp(7-Me)]K(Ac)[Pen][AEF][2Nal(6-OH)][Thp]K([PEG2′-PEG2′-γGlu-C18OH])N[3Pal][Sar]-NH2 (disulfide 1-6 (inferred)) [SEQ ID NO: 273] | < 0.1 nM |  |
| B4 | < 10 pM |  |
| Ac-[dR][Pen]NT[Trp(7-(3-AcNH-Ph))]K(Ac)[Pen][AEF(G)][2Nal(6-OH)][Thp]EN[3Pal(5-Me)][Sar]-NH2 (disulfide 2-7 (inferred)) [SEQ ID NO: 15, listing 2 of 2 here] | < 10 pM |  |
| B5 |  | IL23R Reporter Assay IC50 [4]: < 10 nM |
| Ac-[Pen]NT[Trp(7-Me)]K(Ac)[Pen][AEF][2Nal(6-OH)][Thp]EN[3Pal][Sar]-NH2 (disulfide 1-6 (inferred)) [SEQ ID NO: 428] | < 10 pM |  |
| Ac-[dR][Pen]NT[Trp(7-Me)]K(Ac)[Pen][TMAPF][2Nal(6-OH)][Thp]EN[3Pal][Sar]-NH2 (disulfide 2-7 (inferred)) [SEQ ID NO: 59] | < 0.1 nM |  |
| Ac-[dR][Pen]NT[Trp(7-Me)]K(Ac)[Pen][AEF][6Br2Nal][Thp]EN[Thp]-NH2 (disulfide 2-7 (inferred)) [SEQ ID NO: 444] | > 1 nM |  |
| Ac-[dR][Pen]NT[Trp(7-Me)]K(Ac)[Pen][AEF][2Nal(6-OH)][Thp]EN[3Pal][Sar]K([PEG2′-PEG2′-γGlu-C18OH])-NH2 (disulfide 2-7 (inferred)) [SEQ ID NO: 282] | < 1 nM |  |
| Ac-[dR][Pen]NT[Trp(7-Me)]K(Ac)[Pen][AEF][6F2Nal][Thp]EN[3Pal][Sar]-NH2 (disulfide 2-7 (inferred)) [SEQ ID NO: 407] | < 0.1 nM |  |
| Ac-[dR][Pen]NT[Trp(7-Me)]K(Ac)[Pen][AEF][2Nal(6-OH)][Thp]EN[3Pal][Sar]K(PEG2NMePEG2NMegENMeCl8Tetrazole)-NH2 (disulfide 2-7 (inferred); reading uncertain) [SEQ ID NO: 115] | < 1 nM |  |
| B6 | < 10 pM |  |
